US20140328850A1 (Amgen, published 2014)
No end group written: not given here.

Experiments:
[1] = biological target: apelin (UniProt Q9ULZ1 65-77, limits assumed); experiment: cell-based or functional assay
[2] = biological target: T1, apelin 12 (UniProt Q9ULZ1 66-77); experiment: BIAcore solution equilibrium binding: Ab A pre-incubated with apelin 12, injected over immobilised biotin-labeled apelin; one-site homogeneous model
T1 construct: domain: apelin 12
T1 peptide (looked up): RPRLSHKGPMPF
Procedure: Binding affinity of Ab A was determined using BIAcore solution equilibrium binding analysis. Briefly, biotin-labeled apelin was immobilized at high density on a neutravidin surface. Ab A was incubated with apelin 12 at RT for over 4 hours before injected over the immobilized surfaces. The dissociation equilibrium constant (Kd) was obtained from a nonlinear regression analysis of the competition curve using a one-site homogeneous binding model (KinExATM Pro software).

[3] = biological target: T2, apelin 12-2 (also: biotinylated, position not given here); experiment: ELISA: biotinylated peptide captured on neutravidin plate, antibody detected with HRP goat anti-mouse Fc, OD650; one point per peptide, antibody concentration not given
T2 construct: also called peptide 11
T2 peptide: RPRLSHKGPMP
Procedure: (§1) The antibody binding site was mapped using an ELISA-based assay. Briefly, various biotinylated apelin peptides (SEQ ID NOs: 7-22) were captured onto neutravidin coated plates and incubated with apelin antibody. Bound antibody was detected with horseradish peroxidase-conjugated goat anti-mouse Fc in the presence of the chromogenic substrate. The absorbance was read at 650 nm. Ab A is believed to neutralize all active forms of apelin.

[4] = biological target: T3, apelin 12-3 (also: biotinylated, position not given here); experiment: as above
T3 construct: also called peptide 12
T3 peptide: RPRLSHKGPM
Procedure: as §1

[5] = biological target: T4, apelin 12-4 (also: biotinylated, position not given here); experiment: as above
T4 construct: also called peptide 13
T4 peptide: RPRLSHKGP
Procedure: as §1

[6] = biological target: T5, apelin 12-5 (also: biotinylated, position not given here); experiment: as above
T5 construct: also called peptide 14
T5 peptide: RPRLSHKG
Procedure: as §1

[7] = biological target: T6, pyro13 C-blot (N-terminal pGlu as printed; biotinylated; the sheet prints 'C-blot', meaning not explained); experiment: as above
T6 construct: also called peptide 3
T6 peptide: ERPRLSHKGPMPF
Procedure: as §1

[8] = biological target: T7, F13A (also: biotinylated, position not given here); experiment: as above
T7 construct: apelin 13 with A in place of the C-terminal F; also called peptide 4
T7 peptide: QRPRLSHKGPMPA
Procedure: as §1

[9] = biological target: T8, apelin 11 (also: biotinylated, position not given here); experiment: as above
T8 construct: also called peptide 6
T8 peptide: PRLSHKGPMPF
Procedure: as §1

B1: antibody A (Ab A) (antibody, V domains shown)
VH: NVQLVESGGGLVKPGGSLKLSCVASGFIFSDYVMSWVRQTPEKRLEWVATISDGGIYTSYPDNIKGRFTISRDNANNKLYLQMSHLRSEDTAMYFCSRAAITSDDFDFWGQGTALTVSS
VL: DIVMSQSPSSLAVSAGEKVTMSCKSSQSLLDSRTRKNYLAWYQQKPGQSPKLLISWASIRESGVPDRFTGSGSGTDFTLSISSVQAEDLAVYYCKQSYYLLTFGAGTKLELKR
notes: also called apelin antibody; apelin Ab
IC50: inhibition of the apelin-induced change of cAMP (HTRF ratio 665/620) in CHOK1-human APJ cells, 6 nM apelin, 500 nM forskolin [1]: 18.2 nM
Kd [2]: 6 nM
binding result [3]: binds
binding result [4]: binds
binding result [5]: binds
binding result [6]: binds
binding result [7]: binds
binding result [8]: binds
binding result [9]: binds
